Results: patent US20120172306A1, “Use of HASF as a Protective Agent Against Ischemic Tissue Damage” (Duke University, priority 2009, published 2012)

Legend:
[1] = system: rat myocardial infarction, peri-infarct region; assay: In vivo ischemia/reperfusion injury, TUNEL staining; conditions: 1 μg intramyocardial, 30 min ischemia/24 h reperfusion
Experimental: FIG. 5B is a series of photographs and a bar graph showing TUNEL staining in control or HASF injected animals from groups described above to detect in vivo apoptosis of cardiomyocytes. Serial cyrosections of 5 μm thick were made immediately below the ligation area, 10 sections for each heart were analyzed, with N=8 rats per group. Sections were counterstained with hematoxylin. Total number of dark-brown color stained apoptotic nuclei were counted and added up blindly in 10 randomly taken fields within the peri-infarct region in each group.
(§1) Female Sprague-Dawley rats were used for all in vivo experiments. A midsternal thoracotomy was performed to expose the anterior surface of the heart after anesthesia. The proximal left […] coronary artery (LAD) was identified and a 6.0 suture (Ethicon) was placed around the artery and surrounding myocardium. […]
For TUNEL staining (DeadEnd Colometric TUNEL System, Promega) after 30 min ischemia/24 h reperfusion, serial cyrosections of 5 μm thick were made immediately below the ligation area, 10 sections for each heart were analyzed, with 8 rats in each group. […] Total number of dark-brown color stained apoptotic nuclei were counted and added up blindly in 10 randomly taken fields within the peri-infarct region in each group.

[2] = system: rat myocardial infarction; assay: In vivo ischemia/reperfusion injury, fibrosis (Masson's trichrome); conditions: 1 μg intramyocardial, 4 weeks after ischemia/reperfusion
Experimental: FIG. 5C is a series of photographs and a bar graph showing fibrosis. For fibrosis analysis, animals were sacrificed 4 weeks after the initial ischemia/reperfusion injury and serial cryosections of 5 μm thick were made immediately below the ligation area, 10 sections for each heart were analyzed. HASF injected group N=8 rats. PBS injected control group N=6. Brilliant blue color stained collagen area was quantified using ImageJ computer software and the mean of % fibrosis was calculated as collagen positive area/total area. *** P<0.001.
as §1
For fibrosis analysis, animals were sacrificed 4 weeks after the initial 30 min ischemia/24 h reperfusion injury and serial cyrosections of 5 μm thick were made immediately below the ligation area, 10 sections for each heart analyzed, and with 8 rats in HASF protein injected group and 6 rats in PBS injected control group. […] Brilliant blue color stained collagen area was quantified using ImageJ computer software and the mean of % fibrosis was calculated as collagen positive area/total area.

adult rat cardiomyocytes = assay: DNA fragmentation and apoptosis-related protein western blotting; format: cell-based
Experimental: FIGS. 7A-C are a series of photographs showing the effects of HASF in cytochrome c, Bcl2, Bax and DNA degradation. In FIG. 7A, Adult rat cardiomyocytes were treated with +10 nM of HASF for 30 min, and then challenged with 100 μM of H2O2 for 6 h. Mitochondrial fraction or cytosolic fraction or total cell lysate were extracted and separated in 15% SDS-PAGE and transferred to nitrocellulose membrane and probed with mouse anti-Cytochrome C monoclonal antibody. Lane 1-2, —H2O2 control; lane 3-4, +H2O2 control; lane 5-8, four individual samples of +HASF recombinant protein and then +H2O2. In FIG. 7B, Western blot of mitochondrial fractions with Bcl2 and Bax antibodies respectively. Lane 1, —H2O2control; lane 2, +H2O2control; lane 3-6, four individual samples of +HASF and then +H2O2. In FIG. 7C, adult rat cardiomyocytes were treated +10 nM of HASF for 30 min, and then challenged with 100 μM of H2O2 for overnight (˜15 h). Genomic DNA was extracted and separated on 1% agarose gel. H2O2 induced apoptosis in cardiomyocytes was companied by typical DNA fragmentation (laddering) at late-stage apoptosis. Pre-incubation of cardiomyocytes with 10 nM of this HASF recombinant protein inhibited the DNA laddering to a noticeable extends. Lane 1, DNA marker; lane 2, —H2O2control; lane 3-4, +H2O2; lane 5-6, +HASF recombinant protein and then +H2O2.
Adult rat ventricular cardiomyocytes were isolated from 6 weeks old female Sprague-Dawley rat (Harlan World Headquarters, Indianapolis, Ill., USA) hearts by enzymatic digestion and were seeded in (6-well) plates or Delta T culture dishes (Bioptechs, Inc., Pa.) pre-coated with 1 μg/cm2 of laminin (Sigma) at 5×10^4/well and cultured overnight in serum-free M199 medium (Sigma), supplemented with 2 mM of L-carnitine, 5 mM of creatine, 5 mM of taurine, 0.2% of albumin, 100 U/ml of penicillin and 100 μg/ml of streptomycin. Cells were briefly treated without or with PKC inhibitor (with vehicle saponin), then recombinant protein HASF (10 or 100 nM) was added into cells for 30 min, with PBS used as vehicle controls. The cells were challenged with H2O2 for various time points. For the Caspase assays, cardiomyocytes were scraped off plates in lysis buffer and were analyzed by a luminescent plate reader with Caspase-Glo 3/7 and or Caspase-Glo 9 kits (Promega); and for DNA fragmentation, genomic DNA from cardiomyocytes was extracted and separated on 1% agarose gel electrophoreses, with Apoptotic DNA Ladder Extraction Kit (BioVision), according to manufacturers' instructions. […]

B1: HASF: Hypoxia regulated Akt MSC Factor, secreted protein encoded by C3orf58; recombinant human protein without N-signal sequence, SEQ ID NO:1 or 2 (protein, UniProt Q8NDZ4 36-430, looked up)
Divergent protein kinase …: LASWQRNELTDRRFLQLNKCPACFGTSWCRRFLNGQVVFEAWGRLRLLDFLNVKNVYFAQYGEPREGGRRRVVLKRLGSQRELAQLDQSICKRATGRPRCDLLQAMPRTEFARLNGDVRLLTPEAVEGWSDLVHCPSQRLLDRLVRRYAETKDSGSFLLRNLKDSERMQLLLTLAFNPEPLVLQSFPSDEGWPFAKYLGACGRMVAVNYVGEELWSYFNAPWEKRVDLAWQLMEIAEQLTNNDFEFALYLLDVSFDNFAVGPRDGKVIIVDAENVLVADKRLIRQNKPENWDVWYESKFDDCDKEACLSFSKEILCARATVDHNYYAVCQNLLSRHATWRGTSGGLLHDPPSEIAKDGRLEALLDECANPKKRYGRFQAAKELREYLAQLSNNVR
modifications: 6xHis tag
- reduction of the number of TUNEL positive nuclei [1]: ~69%
- reduction of infarct fibrosis compared to control untreated animals [2]: 61%
- scar (myocardial fibrosis) [2]: 5.7±1.5 % of LV area
- mitochondrial anti-apoptotic Bcl-2 protein level (adult rat cardiomyocytes; 10 nM for 30 min, 100 μM H2O2): increased levels
- cytochrome C release into the cytosol (adult rat cardiomyocytes; 10 nM for 30 min, 100 μM H2O2 6 h): prevention of cytochrome C release into the cytosol
- DNA fragmentation (adult rat cardiomyocytes; 10 nM for 30 min, 100 μM H2O2 overnight (~15 h)): reduction of DNA fragmentation
- translocation of Bax protein from cytosol into mitochondria (adult rat cardiomyocytes; H2O2 induced apoptosis): did not prevent
